# B1: HutZ (residues 13-150, His tagged) (domain or fragment)
# chain: RLEPEIKEFRQERKTLQLATVDAQGRPNVSYAPFVQNQEGYFVLISHIARHARNLEVNPQVSIMMIEDETEAKQLFARKRLTFDAVASMVERDSELWCQVIAQMGERFGEIIDGLSQLQDFMLFRLQPEQGLFVKGFG
# notes: also called truncated HutZ; source: E. coli BL21 (DE3), purified (Ni-chelating Sepharose, Source 15Q, Superdex-200)
# Target: the molecule itself
# Experiment: SEC
protein,measurement,value
B1,stoichiometry N,2
